The assay concerns hornerin. Nature of the assay: Immunoblot of hornerin in HUVECs treated with growth factors. The conditions noted are these: 24 hours treatment; growth factors at published B-max concentrations, EGF at increasing concentrations. In kind it is cell-based, human. The method, then:
HUVECs were cultured in 10 cm dishes for 24 hours prior to a change to media containing VEGF (at B-max concentration), TCM, or VC. After 24 hours treatment, the cells were washed with DPBST two times and lysed with radioimmunoprecipitation assay (RIPA) buffer (Thermo Scientific). Lysate protein concentrations were measured by the bicinchoninic acid assay (Pierce, Waltham, MA, USA) and equivalent amounts of protein were loaded into precast 4-15% tris-glycine eXtended (TGX) polyacrylamide gels (Bio-Rad, Hercules, CA, USA). The proteins were resolved by electrophoresis and transferred to nitrocellulose membranes using the iBlot system (Invitrogen, Carlsbad, CA, USA). The membranes were then washed in Tris-buffered saline+1% Tween-20 (TBST), blocked for 30 minutes in TBST+2% milk solution, and incubated overnight at 4° C. with primary antibodies anti-hornerin (Abcam, Cambridge, UK, ab78909; (1:1000)) and anti-HSP90 (Cell Signaling Technology, Danvers, MA, USA, 4877; (1:1000)). The following day the membranes were washed and subsequently incubated with the secondary antibodies anti-goat HRP (R&D Systems, Minneapolis, MN, USA, HAF109; 1:5000) and anti-rabbit HRP (GE Healthcare, NA934V; 1:5000) for 45 minutes at RT. […]
Major constituents of TCM were determined using a Human Angiogenesis Antibody Array (Affymetrix, Santa Clara, CA, USA) per manufacturer's instructions. […]

B1: IL-12: growth factor found in TCM, added to HUVECs at published B-max concentration (protein, UniProt P29459 23-219; P29460 23-328, looked up)
Interleukin-12 subunit alpha: RNLPVATPDPGMFPCLHHSQNLLRAVSNMLQKARQTLEFYPCTSEEIDHEDITKDKTSTVEACLPLELTKNESCLNSRETSFITNGSCLASRKTSFMMALCLSSIYEDLKMYQVEFKTMNAKLLMDPKRQIFLDQNMLAVIDELMQALNFNSETVPQKSSLEEPDFYKTKIKLCILLHAFRIRAVTIDRVMSYLNAS
Interleukin-12 subunit beta: IWELKKDVYVVELDWYPDAPGEMVVLTCDTPEEDGITWTLDQSSEVLGSGKTLTIQVKEFGDAGQYTCHKGGEVLSHSLLLLHKKEDGIWSTDILKDQKEPKNKTFLRCEAKNYSGRFTCWWLTTISTDLTFSVKSSRGSSDPQGVTCGAATLSAERVRGDNKEYEYSVECQEDSACPAAEESLPIEVMVDAVHKLKYENYTSSFFIRDIIKPDPPKNLQLKPLKNSRQVEVSWEYPDTWSTPHSYFSLTFCVQVQGKSKREKKDRVFTDKTSATVICRKNASISVRAQDRYYSSSWSEWASVPCS
For B1, the “hornerin expression in HUVECs” value is recorded as “might stimulate hornerin expression”.

The record behind these values is patent US12059429B2, “Hornerin: a novel non-VEGF mediated angiogenic protein expressed in both human and mouse angiogenic endothelial cells and human pancreatic cancer cells” (University of Virginia Patent Foundation, priority 2018, dated 2024).
